Reference: PMC11102521

B1: Apt5 (Aptamer_253457) (ssDNA)
DNA: AGGCCAACTGGATAGCGAATTTGCAATCAGCGTGGGTGGGTTTCTTTTGCGTGGTGTGTCGAATTCAGCACTACCTTTTGGCAAACGCTAATAAGGG
B2: Apt1 (Aptamer_301794) (ssDNA)
DNA: AGGCCAACTGGATAGCGAATAGAACTCTGCCGTGGGGTGCAGTTTTAATTGTACGTTCTCGAATTCAGCACTACCTTTTGGCAAACGCTAATAAGGG
B3: Apt2 (Aptamer_207452) (ssDNA)
DNA: AGGCCAACTGGATAGCGAATGTGGCAGTCGGTTTTGACTTGCGCTCTTGCATCATTATTCGAATTCAGCACTACCTTTTGGCAAACGCTAATAAGGG
B4: Apt4 (Aptamer_423283) (ssDNA)
DNA: AGGCCAACTGGATAGCGAATGTTAGTGGACTCGGTTTGGACGTTCTCTCTTCTCGAATGCGAATTCAGCACTACCTTTTGGCAAACGCTAATAAGGG

Biological target: Staphylococcal enterotoxin A (SEA) (UniProt P0A0L2 25-257)
Sequence (P0A0L2 25-257): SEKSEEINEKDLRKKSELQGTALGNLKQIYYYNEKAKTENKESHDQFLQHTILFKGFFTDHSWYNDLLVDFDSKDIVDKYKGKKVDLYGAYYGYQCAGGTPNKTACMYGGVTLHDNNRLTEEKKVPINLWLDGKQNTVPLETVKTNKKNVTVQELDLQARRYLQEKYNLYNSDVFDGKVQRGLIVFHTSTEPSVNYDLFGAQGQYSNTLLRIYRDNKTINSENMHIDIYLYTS
Assay: […], Tris-HCl pH 7.4, 2.7 mM KCl, 1 mM CaCl2, 0.5 mM MgCl2; 30 min at 25 °C in 100 µL, […]
Conditions: protein: commercial; tags: biotinylated, immobilized on streptavidin magnetic beads

Binder	Kd [nM]	binding result
B1	13.4 ± 1.86	
B2		binds
B3		binds
B4		binds
